{"source": "patent US20230149556A1", "about": "“COMBINATION THERAPY” (ADC Therapeutics SA, priority 2017, published 2023)", "tested_on": "Ramos cells", "assay": "In vitro cytotoxicity MTS assay, chequerboard of ADC and rituximab (Example 4)", "assay_type": "cell-based", "details": "single agent", "description": "Ramos cells were cultured RPMI 1640 supplemented with 10% Hyclone FBS. The concentration and viability of cells from a sub-confluent (80-90% confluency) T75 flask were measured by trypan blue staining, and counted using the LUNA-II™ Automated Cell Counter. Cells were diluted to 2 x10^5/ml, dispensed (50 µl/well) into 96-well flat-bottom plates. A chequerboard was set up in combining 10-fold dilutions of ADCTx19 or ADCTx22 and 10-fold dilutions of rituximab in RPMI before 50 µl of each dilution was transferred into the 96-well plate containing the cells. This plate was incubated at 37° C. in a CO2-gassed incubator for 4 days. At the end of the incubation period, cell viability was measured by MTS assay. MTS (Promega) was dispensed (20 µl per well) into each well and incubated for 4 hours at 37C in the CO2-gassed incubator. Well absorbance was measured at 490 nm. IC50 was determined from the dose-response data using GraphPad Prism using the non-linear curve fit algorithm: sigmoidal dose-response curve with variable slope.", "data": [{"substance": "Rituximab: anti-CD20 agent, antibody, CAS 174722-31-7", "values": [{"measurement": "cytotoxic effect by itself", "result": "no significant cytotoxic effect"}]}]}
